Results: PMC7954794, “Protein context shapes the specificity of SH3 domain-mediated interactions in vivo” (Nature Communications, 2021)

B1: YHR064C (protein, UniProt P38788 1-538, looked up)
Ribosome-associated complex …: MSSPVIGITFGNTSSSIAYINPKNDVDVIANPDGERAIPSALSYVGEDEYHGGQALQQLIRNPKNTIINFRDFIGLPFDKCDVSKCANGAPAVEVDGKVGFVISRGEGKEEKLTVDEVVSRHLNRLKLAAEDYIGSAVKEAVLTVPTNFSEEQKTALKASAAKIGLQIVQFINEPSAALLAHAEQFPFEKDVNVVVADFGGIRSDAAVIAVRNGIFTILATAHDLSLGGDNLDTELVEYFASEFQKKYQANPRKNARSLAKLKANSSITKKTLSNATSATISIDSLADGFDYHASINRMRYELVANKVFAQFSSFVDSVIAKAELDPLDIDAVLLTGGVSFTPKLTTNLEYTLPESVEILGPQNKNASNNPNELAASGAALQARLISDYDADELAEALQPVIVNTPHLKKPIGLIGAKGEFHPVLLAETSFPVQKKLTLKQAKGDFLIGVYEGDHHIEEKTLEPIPKEENAEEDDESEWSDDEPEVVREKLYTLGTKLMELGIKNANGVEIIFNINKDGALRVTARDLKTGNAVKGEL
B2: ABP1 Y7Y (protein, UniProt P15891 2-592, looked up)
Actin-binding protein: ALEPIDYTTHSREIDAEYLKIVRGSDPDTTWLIISPNAKKEYEPESTGSSFHDFLQLFDETKVQYGLARVSPPGSDVEKIIIIGWCPDSAPLKTRASFAANFAAVANNLFKGYHVQVTARDEDDLDENELLMKISNAAGARYSIQTSSKQQGKASTPPVKKSFTPSKSPAPVSKKEPVKTPSPAPAAKISSRVNDNNDDDDWNEPELKERDFDQAPLKPNQSSYKPIGKIDLQKVIAEEKAKEDPRLVQKPTAAGSKIDPSSDIANLKNESKLKRDSEFNSFLGTTKPPSMTESSLKNDDDKVIKGFRNEKSPAQLWAERKAKQNSGNAETKAEAPKPEVPEDEPEGEPDVKDLKSKFEGLAASEKEEEEMENKFAPPPKKSEPTIISPKPFSKPQEPVKAEEAEQPKTDYKKIGNPLPGMHIEADNEEEPEENDDDWDDDEDEAAQPPLPSRNVASGAPVQKEEPEQEEIAPSLPSRNSIPAPKQEEAPEQAPEEEIEEEAEEAAPQLPSRSSAAPPPPPRRATPEKKPKENPWATAEYDYDAAEDNELTFVENDKIINIEFVDDDWWLGELEKDGSKGLFPSNYVSLGN
modifications: synonymous codon change Y7Y in SH3
B3: ABP1 A11A (protein, UniProt P15891 2-592, looked up)
Actin-binding protein: B2 Actin-binding protein
modifications: synonymous codon change A11A in SH3
B4: ABP1 D34D (protein, UniProt P15891 2-592, looked up)
Actin-binding protein: B2 Actin-binding protein
modifications: synonymous codon change D34D
B5: ABP1 V31V (protein, UniProt P15891 2-592, looked up)
Actin-binding protein: B2 Actin-binding protein
modifications: synonymous codon change V31
B6: ABP1 D32D (protein, UniProt P15891 2-592, looked up)
Actin-binding protein: B2 Actin-binding protein
modifications: synonymous D32D codon change
B7: ABP1 D33D (protein, UniProt P15891 2-592, looked up)
Actin-binding protein: B2 Actin-binding protein
modifications: synonymous D33D codon change
B8: ABP1 Y9Y (protein, UniProt P15891 2-592, looked up)
Actin-binding protein: B2 Actin-binding protein
modifications: synonymous codon change Y9Y
B9: ABP1 D10D (protein, UniProt P15891 2-592, looked up)
Actin-binding protein: B2 Actin-binding protein
modifications: synonymous D10D codon change
B10: YHR114W (protein, UniProt P38822 1-633, looked up)
Protein BZZ1: MSADLSIGNEIKDSFKETHKWVQNNLKWLKDIEQFYRERAKLEKDYSERLSRLSAEYFNKKSSTSVPISVGDTPTTTPGSIEAAGVVAWNEILSQTDMISKDHDQLSTDFENHVANQLSGLFTKLDMTLSKINGFNNDMVNKKDNIYHELEKAKKDYDEACSTMEMARNRYTKASNDRNKKKLDEKEMEMNKCKNEYLIKINQANRTKDKYYFQDVPEVLDLLQDVNEAKTLFLNDLWLKAASVENDLGANVSKRLQAANSVVKQNKPSLNTAIFIKHNLKNWKEPQDFVYKPSPVWHDDEKFAVPSSLEVEDLRIKLAKAENDYNSLQDKTQNELSKLSTLNKIKHEMKTNEDNINATKFYDTLKEYLNVVSPFTSHETLKLQAEVQIESIQNNVPEEYDLSTDNIDLSKTKKKSGIFSKFKHNILNVDSKPSSGGSTGNGNGGPLHITSLFNTSRRTRLGSAPNNAGEDSDNNSIRTTSTNNTKKTTQNSSDDGKNKVLYAYVQKDDDEITITPGDKISLVARDTGSGWTKINNDTTGETGLVPTTYIRISSAATVKANDRGPAPEVPPPRRSTLPVRTMEAIYAYEAQGDDEISIDPGDIITVIRGDDGSGWTYGECDGLKGLFPTSYCK

What was measured:
Type in all cases: cell-based, Saccharomyces cerevisiae
[1] = test system: 575 putative partners (preys) of 22 WT SH3-containing proteins; assay: DHFR-PCA on solid medium, WT and SH3-deleted baits (Fig. 1B); design: key to Score: 0: SH3-independent; 1: SH3-dependent PPIs; 2: SH3-inhibited PPIs
How it was run: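 In S. cerevisiae, 22 SH3-containing baits fused genomically to DHFR F[1,2], either WT or with each SH3 replaced via CRISPR by a poly-Gly/Ser linker, screened against 575 DHFR F[3] preys plus 40 negative controls in 1536 arrays, preys duplicated at randomized positions.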

ABP1 = assay: DHFR-PCA on solid medium, bait ABP1 (Fig. 1B); conditions: bait ABP1, label = prey; 2-4 replicates
Description: (§1) Supplement 41467_2021_21873_MOESM8_ESM.xlsx, sheet "Fig1B" | column: medsize; medrep; Ratio; Score

BBC1 = assay: DHFR-PCA on solid medium, bait BBC1 (Fig. 1B); conditions: bait BBC1, label = prey; for medrep (log2 median colony size normalized to plate background, PCA score): 2-4 replicates
Description: as §1

BEM1-1 = assay: DHFR-PCA on solid medium, bait BEM1-1 (Fig. 1B); conditions: bait BEM1-1, label = prey
Description: as §1

BEM1-2 = assay: DHFR-PCA on solid medium, bait BEM1-2 (Fig. 1B); conditions: bait BEM1-2, label = prey; 2-8 replicates
Description: as §1

BOI2 = assay: DHFR-PCA on solid medium, bait BOI2 (Fig. 1B); conditions: bait BOI2, label = prey; 3-8 replicates
Description: as §1

BUD14 = assay: DHFR-PCA on solid medium, bait BUD14 (Fig. 1B); conditions: bait BUD14, label = prey
Description: as §1

BZZ1-1 = assay: DHFR-PCA on solid medium, bait BZZ1-1 (Fig. 1B); conditions: bait BZZ1-1, label = prey; 4 replicates
Description: Supplement 41467_2021_21873_MOESM8_ESM.xlsx, sheet "Fig1B" | column: medsize; medrep; Score

Hua2 = assay: Deep mutational scanning of Abp1 SH3, Abp1-Hua2 DHFR-PCA (DMS score); conditions: for hua2sc (DMS score): Abp1-Hua2, frequencies scaled to the synonymous mutation distribution; for HUA2_MTX2 (frequency normalized to the reference condition): Abp1 SH3 DMS, frequencies normalized to the reference condition; for HUA2_MTX2 (frequency normalized to the reference condition) / hua2sc (frequencies scaled to the synonymous mutation distribution, DMS score) / HUA2_MTX2 (frequencies normalized to the reference condition): Abp1-Hua2 DHFR-PCA, MTX2
How it was run: (§2)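 Abp1 SH3 variants from NNN codon saturation mutagenesis at all 58 positions were reintegrated genomically in yeast by CRISPR, pooled, and mated with DHFR F[3] prey strains. Diploids underwent two 72 h liquid DHFR-PCA selections at 30 °C, and mutant abundance was read by Illumina sequencing against the pre-selection reference.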

Lsb3 = assay: Deep mutational scanning of Abp1 SH3, Abp1-Lsb3 DHFR-PCA (DMS score); conditions: for lsb3sc (DMS score): Abp1-Lsb3, frequencies scaled to the synonymous mutation distribution; for LSB3_MTX2 (frequency normalized to the reference condition): Abp1 SH3 DMS, frequencies normalized to the reference condition; for LSB3_MTX2 (frequency normalized to the reference condition) / lsb3sc (frequencies scaled to the synonymous mutation distribution, DMS score) / LSB3_MTX2 (frequencies normalized to the reference condition): Abp1-Lsb3 DHFR-PCA, MTX2
How it was run: as §2

Hua2 and Lsb3 [2] = assay: Classification of Abp1 SH3 mutations by effect on Hua2 and Lsb3 DMS scores (quadrant); conditions: class of mutation by Hua2 and Lsb3 DMS scores (Dest. both, Dest. Hua2, Dest. Lsb3, Neutral)
Hua2 and Lsb3 [3] = assay: Classification of Abp1 SH3 mutants by DMS scores with Hua2 and Lsb3 (quadrant); conditions: class by DMS scores with Hua2 and Lsb3 (Dest. both, Dest. Hua2, Dest. Lsb3, Neutral)
[4] = only significant differences showed, PPIs completely lost have a ratio of 0.1 and the gained PPIs 2.5

Row | Molecule | hua2sc (DMS score) (Hua2) | HUA2_MTX2 (frequency normalized to the reference condition) (Hua2) | lsb3sc (DMS score) (Lsb3) | LSB3_MTX2 (frequency normalized to the reference condition) (Lsb3) | quadrant (Hua2 and Lsb3 [2]) | hua2sc (frequencies scaled to the synonymous mutation distribution, DMS score) (Hua2) | HUA2_MTX2 (frequencies normalized to the reference condition) (Hua2) | lsb3sc (frequencies scaled to the synonymous mutation distribution, DMS score) (Lsb3) | LSB3_MTX2 (frequencies normalized to the reference condition) (Lsb3) | quadrant (Hua2 and Lsb3 [3]) | also measured
1 | B1 | – | – | – | – | – | – | – | – | – | – | medrep (log2 median colony size normalized to plate background, PCA score) ([1]; bait SLA1-3, DHFR-PCA, label = prey, Replicates 4 (2 for YCR009C, YDR388W, YIL033C)): 4.584; Score ([1]; bait SLA1-3, label = prey): 0; medrep (log2 median colony size normalized to plate background, PCA score) (ABP1): 4.8359; medrep (log2 median colony size normalized to plate background, PCA score) (BBC1): 4.121; medrep (log2 median colony size normalized to plate background, PCA score) (BEM1-1; 2-8 replicates): 1.993; Ratio (SH3-deleted/WT medrep) (BEM1-1; [4]): 0.1; medrep (log2 median colony size normalized to plate background, PCA score) (BEM1-2): 1.993; medrep (log2 median colony size normalized to plate background, PCA score) (BOI2): 2.6006; medrep (log2 median colony size normalized to plate background, PCA score) (BUD14; 4 replicates): 1.869; Ratio (SH3-deleted/WT medrep) (BUD14; [4]): 0.1; medrep (log2 median colony size normalized to plate background, PCA score) (BZZ1-1): 2.391
2 | B2 | 0.2398 | 1.853 | -0.04736 | 1.453 | Neutral | – | – | – | – | – | –
3 | B3 | 0.2975 | 1.91 | 0.4621 | 1.962 | Neutral | – | – | – | – | – | –
4 | B4 | – | – | – | – | – | -0.3883 | 1.224 | -0.3576 | 1.143 | Neutral | –
5 | B5 | – | – | – | – | – | -0.7307 | 0.882 | -0.4906 | 1.01 | Neutral | –
6 | B6 | – | – | – | – | – | -0.3604 | 1.252 | -0.4014 | 1.099 | Neutral | –
7 | B7 | – | – | – | – | – | 0.4122 | 2.025 | 0.1943 | 1.695 | Neutral | –
8 | B8 | -0.7456 | 0.8672 | -0.3936 | 1.1067 | Neutral | – | – | – | – | – | –
9 | B9 | -0.2777 | 1.335 | 0.006531 | 1.507 | Neutral | – | – | – | – | – | –
10 | B10 | – | – | – | – | – | – | – | – | – | – | medrep (log2 median colony size normalized to plate background, PCA score) (ABP1): 3.834; medrep (log2 median colony size normalized to plate background, PCA score) (BBC1): 1.475; Ratio (SH3-deleted/WT medrep) (BBC1; [4]): 0.1; medrep (log2 median colony size normalized to plate background, PCA score) (BZZ1-1): 4.137
